This passage reports fold weaker binding than the Val variant results from US20070141570A1.

The target in this experiment is RIa isoform of PKA (type I alpha regulatory subunit of cAMP-dependent protein kinase). The experiment is described as follows: binding in vitro, method not described.

Take “D-AKAP2 (AKAP10) Ile variant, isoleucine at position 646 of SEQ ID NO:2 (from UniProt O43572 507-662)”: the fold weaker binding than the Val variant came to 3 fold.
